Data taken from the DeepSol protein solubility set.

Test: soluble on expression in E. coli; label from the status in PepcDB or PDB records

Sequence: MSLTKLLLLQKIKDPDLKQIHRDFPDLELINADEMTNELVDQIEIVYGQFSHLQKGYGFSSWFGKVVPNGKSLKWVQTISAGIDFLPLDQLAKRGIMVSNMSGLHSEAISENVLAYILILNRGLKFALANQAKQSWDFNFPKIKQLQDKKILIFGTGAIGSAIAKILQAFDVEVIGVNRHGKDLKYFDRVITQEQLGDFADADYLISDMPLTTQTRGYFDSDFFSLFKKQPIFINVGRGPSVVEKDLIKALKADILSGAALDVFEHEPLASDSPLWKMENVIVTPHSSALLEHFQRDAYKIFGPNLKSYLANGEGHHHHHH
- soluble on expression in E. coli: not soluble

Sequence: NDIYNNAITPYLNKETGYQEMFQRVNTRIREFMINELKNHHNEDNVFMLAKNSGIEIAKIEEAPNAVLIPAFVLGELEVAFK
- soluble on expression in E. coli: not soluble

Sequence: MKIISFVLPCLLVLAGCSTPSQPEAPKPPQIGMANPASVYCQQKGGTLIPVQTAQGVSNNCKLPGGETIDEWALWRRDHPAGEKLEHHHHHH
- soluble on expression in E. coli: not soluble

Sequence: MDTQDPLSQKYAISMLFFLLDRGNVKQFELLKIISSNMTIEKLSKILEEAGLINIKREFTGRKSYSFSLTPKGRLVAEQLKKAEEIAQKPSAEIEESVEKIELLLANEEAERIREWSFLLHINIMDDHITEEISGKSPRFFNIYIKRNGNGEFLLWCEQDNSYDCWHVKAAWTYPEVQKMMMHYKGKVKICHICGYENAEEGKFCTNCGTKLE
- soluble on expression in E. coli: not soluble

Sequence: MNNSLSDKYNSSSTTLCSSVHAESCPTDTEDAIIRNIKLPGFRGNISRALSQKSNSPSGCRTPTPKTAPPSYEQFQVLRRNSMKSSVQPQRNGILSPAPPVPTSSRANTITVNGAHVQQAMNRIDMSTDSANTILRSPYSTRSDSITSVDSGQCSGDQIERRSNCSTRQESKDDDDTGMPSYARMASTMDHVLRTSSALYTLLSSALDPATCRDLLAKSSVFIQLLESSPCTNYLPKTEMARLKMNVQELQKNRDKGIIDMNNMTNFFAILLRKSIESVLLVFVRIISKNLCESNGKDRLTPICLEHLIHICLFGDELCIEAIQKGCISSVIRIMKNDQPQENTLRFLLRTLAVLCGVSKGALALLTQGGLDLVIDRLLSISSSICSVEAAGILTQLTNPQSAFIRLNHVEPIISRLLDLIDQCKSGDSLLLATAALNNVTLQNPNGVDIMYRNNSIRRLISAYNRENCATVFVQEQIVTAFSRLAARHLDHQMVDQNAIPVLLEFLSLTHPIHADYCRRIRYKAAVCIGTLANSEIGLKALYGNNAYAILSNVLYDDNNSSNPFNMICNNIRTKLESKYQSESAV
- soluble on expression in E. coli: not soluble

Sequence: MGSDKIHHHHHHLRLFGTKDEQLFMLFSESARVVVRGGDILQNVVNDYSDLDIKMAKLTAMEHEGDRIIQELIRRLNTSFILPFDREDAFQLAQKLSTTLDYITGIIDRMILYKTGRPNKRVKEMVNVLCEALFLQERALNLLQSLEHNKREILECCEEIRQLERKQDNHYRQGLALLFENEEEPIVIIKWREVYEHIEMAQDYVQDVAELISNICVKYS
- soluble on expression in E. coli: not soluble

Sequence: EETIPLQTLRCYNDYTSHITCRWADTQDAQRLVNVTLIRRVNEDLLEPVSCDLSDDMPWSACPHPRCVPRRCVIPCQSFVVTDVDYFSFQPDRPLGTRLTVTLTQHVQPPEPRDLQISTDQDHFLLTWSVALGSPQSHWLSPGDLEFEVVYKRLQDSWEDAAILLSNTSQATLGPEHLMPSSTYVARVRTRLAPGSRLSGRPSKWSPEVCWDSQPGDEAQPQNLECFFDGAAVLSCSWEVRKEVASSVSFGLFYKPSPDAGEEECSPVLREGLGSLHTRHHCQIPVPDPATHGQYIVSVQPRRAEKHIKSSVNIQMAPPSLQVTKDGDSYSLRWETMKMRYEHIDHTFEIQYRKDTATWKDSKTETLQNAHSMALPALEPSTRYWARVRVRTSRTGYNGIWSEWSEARSWDTES
- soluble on expression in E. coli: soluble

Sequence: MNDFSLELPVRTNKPRETGQSILIDNGYPLQFFKDAIAGASDYIDFVKFGWGTSLLTKDLEEKISTLKEHDITFFFGGTLFEKYVSQKKVNEFHRYCTYFGCEYIEISNGTLPMTNKEKAAYIADFSDEFLVLSEVGSKDAELASRQSSEEWLEYIVEDMEAGAEKVITEARESGTGGICSSSGDVRFQIVDDIISSDIDINRLIFEAPNKTLQQGFIQKIGPNVNLANIPFHDAIALETLRLGLRSDTFFL
- soluble on expression in E. coli: soluble

Sequence: MSEFTQDTVQKPIDELVTWVKQYDFSLNLPTERLAFLLAIAVLSNERFDEELGEGELHDAFAIVTRLFAESGEASAFRANNAINDLVKQRLLSRFTSEMTEGASIYRLTPLAIGITDYYVRHREFSKLKLSIQLSMVADEMAKAVESAQQGGSVAHWRKNVFGVLKYSVSEIFDRIDLNQRVMDEQQQSVKEQIADLLNKDWRDAINNCEALLSETSATLRELQDTLQAAGDELQTQILDIQECVYGDLELDFIEETLSALQMKLDRITSWGQQSIDLWIGYDRHVHKFIRTAIDMDQNRAFSQRLRQSMNDYFEQPWYLTYADAERLSDLRDETLTLRDEEVTGHVPTEVEYEELQQVNDELAQRIGDMLKVHKEQGAAIDLALVLRDYLASHPRTHHFDLARMVVDQAVRLGYSESDYRAIQPDWTAINDFGAKVQANVIDRYLEHHHHHH
- soluble on expression in E. coli: soluble

Sequence: MAPKDNTWYTGAKLGFSQYHDTGFINNNGPTHENQLGAGAFGGYQVNPYVGFEMGYDFLGRMPYKGSVENGAYKAQGVQLTAKLGYPITDDLDIYTRLGGMVFRADTKSNVYGKNHDTGVSPVFAGGVEYAITPEIATRLEYQFTNNIGDAHTIGTRPDNGMLSLGVSYRFGQGEAA
- soluble on expression in E. coli: soluble

Sequence: MDEKLVKEVIFSFREVQRKTHHVLAEEAANREITTTQLLAIRELQKESDLTLGELAERMKLGKSTVSGIVDRLVKAGFLKRTRNESNRRALSLELTEKGATKAAETYHVFFNRLEPILEIGEERLKEMLEMHQEIITILEREGARD
- soluble on expression in E. coli: not soluble

Sequence: MSLKKIMEYLQHYINQYPHRLALVFEDRHLTYGELSKEIYQASMRYKEVKLNEKVGLMDDHPVNNIINYFAVHQRGGIPCIFNHQWSNERIHQLVKSYDIQWLIKDNHLTLNHDDSIYNDEVIPRNVIHIGFTSGTTGLPKAFYRNEHSWIVSFKENEKLLQHCEETIVAPGPLSHSLSLYACIYALSTGKTFIGQKNFNPLSLMRLINQLNKATAIFVVPTMVQQLISTQRHCSSIKSILSSGAKLTLQQFQQISTLYPQANLIEFFGTSEASFISYNFNQSSPAHSVGKLFPHVETRLLNQDDDAVGLLAVRSEMVFSGYVGQSNQEGSWIKTGDFAYIKNQHLFLVGRESDRIIVGGINVYPTAIESLIMDIEGIDEALVIGIPHAKFGEIAILLYSGKVQLNYRQIKSFLMKQLSRQEVPSKLKKIDHMIYTESGKIARKEMKNKFINGEGHHHHHH
- soluble on expression in E. coli: not soluble

Sequence: GSFTMDDISPSELKTILHSKRANLYYLQHCRVLVNGGRVEYVTDEGRHSHYWNIPIANTTSLLLGTGTSITQAAMRELARAGVLVGFCGGGGTPLFSANEVDVEVSWLTPQSEYRPTEYLQRWVGFWFDEEKRLVAARHFQRARLERIRHSWLEDRVLRDAGFAVDATALAVAVEDSARALEQAPNHEHLLTEEARLSKRLFKLAAQATRYGEFVRAKRGSGGDPANRFLDHGNYLAYGLAATATWVLGIPHGLAVLHGKTRRGGLVFDVADLIKDSLILPQAFLSAMRGDEEQDFRQACLDNLSRAQALDFMIDTLKDVAQRSTVSA
- soluble on expression in E. coli: soluble

Sequence: MSLLNPVLLPPKVKAYLSQGERFIKWDDETTVASPVILRVDPKGYYLYWTYQSKEMEFLDITSIRDTRFGKFAKMPKSQKLRDVFNMDFPDNSFLLKTLTVVSGPDMVDLTFHNFVSYKENVGKAWAEDVLALVKHPLTANASRSTFLDKILVKLKMQLNSEGKIPVKNFFQMFPADRKRVEAALSACHLPKGKNDAINPEDFPEPVYKSFLMSLCPRPEIDEIFTSYHAKAKPYMTKEHLTKFINQKQRDSRLNSLLFPPARPDQVQGLIDKYEPSGINAQRGQLSPEGMVWFLCGPENSVLAQDKLLLHHDMTQPLNHYFINSSHNTYLTAGQFSGLSSAEMYRQVLLSGCRCVELDCWKGKPPDEEPIITHGFTMTTDIFFKEAIEAIAESAFKTSPYPIILSFENHVDSPRQQAKMAEYCRTIFGDMLLTEPLEKFPLKPGVPLPSPEDLRGKILIKNKKNQFSGPTSSSKDTGGEAEGSSPPSAPAVWAGEEGTELEEEEVEEEEEEESGNLDEEEIKKMQSDEGTAGLEVTAYEEMSSLVNYIQPTKFVSFEFSAQKNRSYVISSFTELKAYDLLSKASVQFVDYNKRQMSRIYPKGTRMDSSNYMPQMFWNAGCQMVALNFQTMDLPMQQNMAVFEFNGQSGYLLKHEFMRRPDKQFNPFSVDRIDVVVATTLSITVISGQFLSERSVRTYVEVELFGLPGDPKRRYRTKLSPSTNSINPVWKEEPFVFEKILMPELASLRVAVMEEGNKFLGHRIIPINALNSGYHHLCLHSESNMPLTMPALFIFLEMKD
- soluble on expression in E. coli: soluble

Sequence: MGSDKIHHHHHHMYRLMDRQQMPFLFRFLSDSELYAFKDGQIISTFNKCGLFFCRKGNVEVSLEDKHFQINPGDVYIYMASTLVHLLHKSEDAEGVMVEVDLDYIIPIVNRVINVENQLFMRKHPCISLSDKQRAHLEYLLDNLRERIEAEDVQEVNLQQQRLTLELIKSMGQTFCYEILNMYFANQPMQPLPQNKKDVIFQNFMLALFRLYRKERDVAYYARMQHITPRYFSTIIKEKSGNSALQWIVQMVITEAKQLLEGSDLSIKEIADQLNFPTQSFFGKYFKQYVGISPKEYRKGKLRIKDGI
- soluble on expression in E. coli: not soluble

Sequence: MHTNMWVVDNVVERKKYYPQLQEAAKLLRENEAIAFPTETVYGLGANAMNDEAIAKIFEAKGRPSDNPLIVHIGTKSQLDGIVKEIPPVAEKLMEHFWPGPLTIILPRKEGISEKVTAGLHTVGVRMPDHPVALALIEEANVPVAAPSANRSGRPSPTLASHVYEDLNEKIAGIVDGGATGVGVESTVIDCTSAVPTILRPGGITKEQLEAVIGTVSLDPALKDEKEKPKSPGMKYTHYAPKAPLSIVEGSREFIQRLVDEKKEEGFKVGVLTTEEYHHIYNADVVLSCGVRSDLASVATKLYDVLRTFDASEVDVIFSESFPNEGIGNAIMNRLTKAAGHHIITE
- soluble on expression in E. coli: not soluble

Sequence: MFTTVITPRVSETDGVGHINNTTVPVWFEAGRHEIFKLFTPDLSFKRWRMVIIRMEVDYVNQMYYGQDVTVYTGIERIGNTSLTIYEEIHQNGVVCAKGRSVYVNFNFDTGRPEPIPDDIRVKLREHVWQPGE
- soluble on expression in E. coli: soluble

Sequence: MSTTKKGDTYNEAWVKDTNGFDILMGQFAHNIENIWGFKEVVIAGPKDYVKYTDQYQTRSHINFDDGTITIETIAGTEPAAHLRRAIIKTLLMGDDPSSVDLYSDVDDITISKEPFLYGQVVDNTGQPIRWEGRASNFADYLLKNRLKSRSNGLRIIYSVTINMVPNHLDKRAHKYLGMVRQASRKYGVDESLILAIMQTESSFNPYAVSRSDALGLMQVVQHTAGKDVFRSQGKSGTPSRSFLFDPASNIDTGTAYLAMLNNVYLGGIDNPTSRRYAVITAYNGGAGSVLRVFSNDKIQAANIINTMTPGDVYQTLTTRHPSAESRRYLYKVNTAQKSYRRRLEHHHHHH
- soluble on expression in E. coli: soluble

Sequence: MGSDKIHHHHHHMSVLKATNSIEQRLQIQRLQAPTRVVTSTAGGDVVRGLTQTPKTLPPCYFYDDRGSELFERICELPEYYVTRTETAILQRFAGEIARITGACELVELGSGNSTKTRILLDAYQQLDYPLRYLPIDVCAGILESSAKQLLQDYPSLEVYALAGTYELALAQLTPKKLSSRMICFIGSTLGNLNLQECDVFLSQIRATLNVGEYFLLGVDLQKPKEILEPAYDDSQGVTAEFNLNMLEHLNRSFEGNFDTTQFKHWAFYNESEQRIEMHLKSERSQTVQLKSLNLTVNLAQGETILTEISRKFNLESIQQQLAAKGLIPVQTWTDVNQWFGLLLCQVQG
- soluble on expression in E. coli: not soluble

Sequence: MSLRVAIEGCTQGHGTLDAIYASVEESCKQRGWDGVDILIIGGDFQSVRNAEDLSIMSCPVKYRHLGDFPKYYSGERKAPYLTIFIAGNHEASSHLWELYYGGWVAPNIYYMGAANILRFGPLRIAGLSGIWKGFDYRKPHHERLPFSGGDVKSWYHVREIDVRKLLQVQTQVDVGLSHDWPRAVELHGDHEWLFRKKPDFRNESRDGTLGSVAAEYVMDRLRPPHWFSAHMHVKFAAIKTYSEAQPEEGHHHHHH
- soluble on expression in E. coli: soluble
